Source: patent publication US20210070881A1 (DENALI THERAPEUTICS, published 2021)

B1: 3C11 (antibody, human IgG1, V domains shown)
VH: EVQLQQSGADLMKPGASVKLSCKATGYTFTGYWIEWVKQRPGHGLEWIGEIFPGSVSTNYNEKFKGKATFTADTSSNTAYMQLSSLTTEDSAIYYCARSPIYYDYADYWGQGTTLTVSS
VL: DIVLSQSHKFMSTSVGDRVSITCKASQDVGTAVAWYQQKPGQSPKALIYLASNRHTGVPDRFTGSGSGTDFTLTISNVQSEDLAEYFCQQYNSYPYTFGGGTRLEIK
notes: chimeric, human IgG1/kappa; also called Clone 3C11
B2: 4A4 (antibody, human IgG1, V domains shown)
VH: EVKLMESGPGLVAPSQSLSITCTVSGFSLTSYPINWVRQPPGKGLEWLGVIWTGGSTNYNSALKSRLSISRDNSKSQVFLKMNSLQTDDTARYYCARWDGYFGAFDYWGQGTTVTVSS
VL: DIVMTQTTSSLSASLGDRVTISCRASQDISKYLNWYQQKPDGTVKLLIYYTSRLHSGVPSRFSGSGSGTDYSLTISNLEQEDIATYFCQQSLSLPYTFGGGTRLEIK
notes: chimeric, human IgG1/kappa; also called Clone 4A4
B3: 1D2 (antibody, human IgG1, V domains shown)
VH: EVHVKQSGPELKKPGETVTISCKASGYTFTTYGMTWVRQAPGKDLEWMGWINTHSGVPIYADDFKGRFAFSLETSAGTAYLQINNLKNEDTATYFCTRRGRLGHYFDYWGQGTSVTVSS
VL: DIVMTQSQKFMSTSVGDRVSVTCKASQNVGTNVAWYQQKPGQSPKLLIYWASTRHTGVPDRFTGSGSGTDFTLTISNVQSEDLADYFCQQYSSYPYTFGGGTKLELK
notes: chimeric, human IgG1/kappa; also called Clone 1D2
B4: hu2H8v29.13 (antibody, V domains shown)
VH: QVQLVQSGAEVKKPGASVKVSCKASGYTFTNYWIHWVRQAPGQGLEWMGMIDPSDSYTKYNQKFKARATLTVDTSTSTVYMELSSLRSEDTAVYYCARSGVAFPYWGQGTLVTVSS
VL: DIQMTQSPSSLSASVGDRVTITCKASQDVGRNVAWYQQKPGKSPKSLIYSASHRYSGVPSRFSGSGSGTDFTLTISSLQPEDFATYFCQQYNSYPYTFGQGTKVEIK
notes: captured via human Fc; also called hu2H8_LC5 + hu2H8_HC6.2
B5: hu2H8v29.28 (antibody, V domains shown)
VH: QVQLVQSGAEVKKPGASVKVSCKASGYTFTNFWIHWVRQAPGQGLEWMGMIDPDSSYTKYNQKFKARATLTVDTSTSTVYMELSSLRSEDTAVYYCARSGASLPYWGQGTLVTVSS
VL: DIQMTQSPSSLSASVGDRVTITCKASQDVGRNVAWYQQKPGKSPKSLIYSASHYYSGVPSRFSGSGSGTDFTLTISSLQPEDFATYFCQQYYSYPYTFGQGTKVEIK
notes: captured via human Fc; also called hu2H8_LC5.12 + hu2H8_HC6.17
B6: hu2H8v29.22 (antibody, V domains shown)
VH: QVQLVQSGAEVKKPGASVKVSCKASGYTFTNFWIHWVRQAPGQGLEWMGMIDPSDSYTKYNQKFKARATLTVDTSTSTVYMELSSLRSEDTAVYYCARSGVALPSWGQGTLVTVSS
VL: DIQMTQSPSSLSASVGDRVTITCKASQDVGRNVAWYQQKPGKSPKSLIYSASHRYSGVPSRFSGSGSGTDFTLTISSLQPEDFATYFCQQYNSYPYTFGQGTKVEIK
notes: captured via human Fc; also called hu2H8_LC5 + hu2H8_HC6.11
B7: hu2H8v29.26 (antibody, V domains shown)
VH: QVQLVQSGAEVKKPGASVKVSCKASGYTFTNFWIHWVRQAPGQGLEWMGMIDPSDSYTKYNQKFKARATLTVDTSTSTVYMELSSLRSEDTAVYYCARSGGALPYWGQGTLVTVSS
VL: DIQMTQSPSSLSASVGDRVTITCKASQDVGRNVAWYQQKPGKSPKSLIYSASHRYSGVPSRFSGSGSGTDFTLTISSLQPEDFATYFCQQYNSYPYTFGQGTKVEIK
notes: captured via human Fc; also called hu2H8_LC5 + hu2H8_HC6.15
B8: hu2H8v29.16 (antibody, V domains shown)
VH: QVQLVQSGAEVKKPGASVKVSCKASGYTFTNFWIHWVRQAPGQGLEWMGIIDPSDSYTKYNQKFKARATLTVDTSTSTVYMELSSLRSEDTAVYYCARSGVAFPYWGQGTLVTVSS
VL: DIQMTQSPSSLSASVGDRVTITCKASQDVGRNVAWYQQKPGKSPKSLIYSASHRYSGVPSRFSGSGSGTDFTLTISSLQPEDFATYFCQQYNSYPYTFGQGTKVEIK
notes: captured via human Fc; also called hu2H8_LC5 + hu2H8_HC6.5
B9: hu2H8v29.14 (antibody, V domains shown)
VH: QVQLVQSGAEVKKPGASVKVSCKASGYTFNSYWIHWVRQAPGQGLEWMGMIDPSDSYTKYNQKFKARATLTVDTSTSTVYMELSSLRSEDTAVYYCARSGVAFPYWGQGTLVTVSS
VL: DIQMTQSPSSLSASVGDRVTITCKASQDVGRNVAWYQQKPGKSPKSLIYSASHRYSGVPSRFSGSGSGTDFTLTISSLQPEDFATYFCQQYNSYPYTFGQGTKVEIK
notes: captured via human Fc; also called hu2H8_LC5 + hu2H8_HC6.3

Biological target: cellular BACE1 in CHOK1-huAPP cells
Experiment: cell-based or functional assay

% Max Inhibition [%]	Cellular IC50 [nM]	Binder
56	36	B1
53	17	B2
47	4	B3

Biological target: T1, recombinant BACE1 (BACE1 extracellular domain, R&D Systems Cat#931-AS) (UniProt P56817 22-457)
T1 construct: extracellular domain; also called BACE1 extracellular domain protein
Experiment: SPR Biacore T200, IgG captured, BACE1 analyte
Protocol: The affinity of chimeric IgG antibodies for recombinant BACE1 was determined by surface plasmon resonance using a Biacore™ T200 instrument. Biacore™ Series S CMS sensor chips were immobilized with monoclonal mouse anti-human IgG (Fc) antibody (e.g., using a human antibody capture kit from GE Healthcare). 1 μg/mL of antibody was captured for 1 minute on each flow cell and serial 3-fold dilutions of recombinant BACE1 were injected at a flow rate of 30 μL/min. Each sample was analyzed with a 3-minute association and a 10-minute dissociation. After each injection, the chip was regenerated using 3M MgCl₂. Binding response was corrected by subtracting the RU from a flow cell capturing an irrelevant IgG at similar density. A 1:1 Langmuir model of simultaneous fitting of kₒₙ and koff was used for analysis of kinetics.

T1 sequence (P56817 22-457): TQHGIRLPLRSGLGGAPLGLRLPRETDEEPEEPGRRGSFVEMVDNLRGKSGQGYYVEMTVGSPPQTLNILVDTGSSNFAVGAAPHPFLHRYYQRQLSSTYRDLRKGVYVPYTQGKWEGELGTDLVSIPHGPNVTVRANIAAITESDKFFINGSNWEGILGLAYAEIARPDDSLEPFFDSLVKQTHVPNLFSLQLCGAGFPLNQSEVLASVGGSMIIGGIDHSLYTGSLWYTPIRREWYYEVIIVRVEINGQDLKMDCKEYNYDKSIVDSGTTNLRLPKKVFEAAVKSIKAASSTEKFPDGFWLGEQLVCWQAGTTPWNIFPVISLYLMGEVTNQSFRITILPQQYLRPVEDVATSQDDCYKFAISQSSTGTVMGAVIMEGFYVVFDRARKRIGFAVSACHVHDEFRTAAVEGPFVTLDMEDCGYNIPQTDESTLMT

Kd [nM]	koff [s⁻¹]	kon [M⁻¹ s⁻¹]	Binder
61	0.0013	21000	B1
15	0.0012	83000	B2
3.1	0.00024	78000	B3

Biological target: T1, recombinant BACE1 (BACE1 extracellular …)
Experiment: SPR Biacore 8K, antibody captured, BACE1 analyte
Protocol: The binding affinities of the affinity matured humanized 2H8 variants for BACE1 were determined by surface plasmon resonance using a Biacore™ 8K instrument. […] The binding was monitored for 300 seconds and then dissociation was monitored for 600+ seconds in HBS-EP+ running buffer (GE Healthcare Life Sciences, BR100669). Binding response was corrected by subtracting the RU from a blank flow cell. A 1:1 Langmuir model of simultaneous fitting of kₒₙ and koff was used for kinetics analysis.

Kd [nM]	Binder
9.16	B4
4.8	B5
6	B6
8.52	B7
31.3	B8
9.32	B9
